Values belong to the binder of their own block, whether it stands above or below them.
Legend:
[1] = molecular target: T1, integrin α4 overexpressed in HEK 293T cells (UniProt P13612 34-1032, limits assumed); assay: co-immunoprecipitation from HEK 293T cells overexpressing the proteins
T1 construct: Tested in cell lysates; also called α4 integrin; pITGA4
T1 sequence (looked up): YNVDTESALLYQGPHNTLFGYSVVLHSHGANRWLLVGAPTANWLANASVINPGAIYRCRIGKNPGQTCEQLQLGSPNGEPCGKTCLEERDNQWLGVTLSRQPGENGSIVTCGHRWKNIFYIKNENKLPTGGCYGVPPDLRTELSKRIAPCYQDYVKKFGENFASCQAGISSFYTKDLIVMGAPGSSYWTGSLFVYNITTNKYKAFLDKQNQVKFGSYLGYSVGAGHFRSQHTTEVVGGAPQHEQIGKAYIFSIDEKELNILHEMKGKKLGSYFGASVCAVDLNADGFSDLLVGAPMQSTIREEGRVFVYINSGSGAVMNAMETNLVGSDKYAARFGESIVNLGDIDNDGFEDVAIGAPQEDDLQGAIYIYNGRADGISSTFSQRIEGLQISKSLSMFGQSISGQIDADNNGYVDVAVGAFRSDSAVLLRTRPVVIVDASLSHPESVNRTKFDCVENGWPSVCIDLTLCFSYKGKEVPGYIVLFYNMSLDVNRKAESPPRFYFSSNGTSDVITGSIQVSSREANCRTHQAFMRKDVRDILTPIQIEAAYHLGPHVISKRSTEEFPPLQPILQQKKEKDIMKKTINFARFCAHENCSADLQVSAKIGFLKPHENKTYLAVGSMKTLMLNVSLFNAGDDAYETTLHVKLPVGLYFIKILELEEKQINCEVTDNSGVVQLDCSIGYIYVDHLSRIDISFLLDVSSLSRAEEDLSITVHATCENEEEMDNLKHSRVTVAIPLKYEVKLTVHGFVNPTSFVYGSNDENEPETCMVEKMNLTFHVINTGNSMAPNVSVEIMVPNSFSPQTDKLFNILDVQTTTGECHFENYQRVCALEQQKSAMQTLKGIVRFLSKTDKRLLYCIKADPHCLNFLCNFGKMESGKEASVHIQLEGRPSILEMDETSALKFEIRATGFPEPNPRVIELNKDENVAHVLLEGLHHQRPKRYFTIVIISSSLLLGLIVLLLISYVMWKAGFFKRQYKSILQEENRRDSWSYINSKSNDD
Experimental: Cells (approximately 2×10⁶) were washed one time with PBS and incubated in IP buffer (50 mM Tris-HCl [pH 7.4], 150 mM NaCl, 2 mM EDTA, 1 mM dithiothreitol, 1% Nonidet P-40 [NP-40]; or 10 mM imidazole, 100 mM NaCl, 1 mM MgCl₂, 5 mM EDTA, 1% Triton X-100, pH 7.4) containing 1× cOmplete protease inhibitor cocktail (Roche) for 10 min on ice. Cells were scraped from the plate and rotated at 4° C. for 10 min. Lysates were cleared by centrifugation at 20,000×g at 4° C. for 10 min. An equal amount of protein was added to total 500 microliters of IP buffer plus protease inhibitors (Roche). Antibodies (2 micrograms α-HA (Covance), α-myc (Covance), α-p120 (BD Transduction Laboratories), α-ITGA4 (Cell Signaling Technology, Inc.), mouse IgG1 control (AbD Serotec), or normal rabbit IgG control (R & D Systems)) were added and rotated overnight at 4° C. Subsequently, 20 microliters of protein A/G agarose beads (Santa Cruz Biotechnology, Inc.) were added per sample. After 2 h of rotation (4° C.), beads were washed 5 times in IP buffer containing protease inhibitors. 2× Laemmli buffer was added to the immunoprecipitates or total cell lysates saved prior to IP (input).

[2] = molecular target: the molecule itself; assay: cell-based or functional assay

binding result [1]: no binding
B1: CDH1 (E-cadherin) overexpressed in HEK 293T cells (receptor, UniProt P12830 155-882, looked up)
chain: DWVIPPISCPENEKGPFPKNLVQIKSNKDKEGKVFYSITGQGADTPPVGVFIIERETGWLKVTEPLDRERIATYTLFSHAVSSNGNAVEDPMEILITVTDQNDNKPEFTQEVFKGSVMEGALPGTSVMEVTATDADDDVNTYNAAIAYTILSQDPELPDKNMFTINRNTGVISVVTTGLDRESFPTYTLVVQAADLQGEGLSTTATAVITVTDTNDNPPIFNPTTYKGQVPENEANVVITTLKVTDADAPNTPAWEAVYTILNDDGGQFVVTTNPVNNDGILKTAKGLDFEAKQQYILHVAVTNVVPFEVSLTTSTATVTVDVLDVNEAPIFVPPEKRVEVSEDFGVGQEITSYTAQEPDTFMEQKITYRIWRDTANWLEINPDTGAISTRAELDREDFEHVKNSTYTALIIATDNGSPVATGTGTLLLILSDVNDNAPIPEPRTIFFCERNPKPQVINIIDADLPPNTSPFTAELTHGASANWTIQYNDPTQESIILKPKMALEVGDYKINLKLMDNQNKDQVTTLEVSVCDCEGAAGVCRKAQPVEAGLQIPAILGILGGILALLILILLLLLFLRRRAVVKEPLLPPEDDTRDNVYYYDEEGGGEEDQDFDLSQLHRGLDARPEVTRNDVAPTLMSVPRYLPRPANPDEIGNFIDENLKAADTDPTAPPYDSLLVFDYEGSGSEAASLSSLNSSESDKDQDYDYLNEWGNRFKKLADMYGGGEDD
notes: Tested in cell lysates; also called pCDH1

B2: human CDH26 (cadherin 26) expressed on transduced cells (receptor)
chain: DSVQQETDDLTKQTKEKIYQPLRRSKRRWVITTLELEEEDPGPFPKLIGELFNNMSYNMSLMYLISGPGVDEYPEIGLFSLEDHENGRIYVHRPVDREMTPSFTVYFDVVERSTGKIVDTSLIFNIRISDVNDHAPQFPEKEFNITVQENQSAGQPIFQMLAVDLDEENTPNSQVLYFLISQTPLLKESGFRVDRLSGEIRLSGCLDYETAPQFTLLIRARDCGEPSLSSTTTVHVDVQEGNNHRPAFTQENYKVQIPEGRASQGVLRLLVQDRDSPFTSAWRAKFNILHGNEEGHFDISTDPETNEGILNVIKPLDYETRPAQSLIIVVENEERLVFCERGKLQPPRKAAASATVSVQVTDANDPPAFHPQSFIVNKEEGARPGTLLGTFNAMDPDSQIRYELVHDPANWVSVDKNSGVVITVEPIDRESPHVNNSFYVIIIHAVDDGFPPQTATGTLMLFLSDINDNVPTLRPRSRYMEVCESAVHEPLHIEAEDPDLEPFSDPFTFELDNTWGNAEDTWKLGRNWGQSVELLTLRSLPRGNYLVPLFIGDKQGLSQKQTVHVRICPCASGLTCVELADAEVGLHVGALFPVCAAFVALAVALLFLLRCYFVLEPKRHGCSVSNDEGHQTLVMYNAESKGTSAQTWSDVEGQRPALLICTAAAGPTQGVKDLEEVPPSAASQSAQARCALGSWGYGKPFEPRSVKNIHSTPAYPDATMHRQLLAPVEGRMAETLNQKLHVANVLEDDPGYLPHVYSEEGECGGAPSLSSLASLEQELQPDLLDSLGSKATPFEEIYSESGVPS
phosphorylation of ERK upon calcium restoration [2]: 11.6 fold

Source: patent US20180148492A1 (CHILDREN S HOSPITAL MEDICAL CENTER, published 2018)
